Assay results published in publication PMC4610628 (Immunology, 2015).
Where “and” joins values, the source holds several entries; their conditions need not be identical. Equal values may be shown once. One block for each binder: values may come before it. Square brackets hold non-standard residues; d marks the D form. Ends that are not written are not given here. * marks the point of attachment. Biotin = O=C1N[C@H]2[C@H](CS[C@H]2CCCCC(=O)*)N1; pY = N[C@@H](Cc1ccc(OP(=O)(O)O)cc1)C(=O)O

Assays:
[1] = target: CD229 more distal ITSM phosphopeptide (TIpYCS) (human); experiment: SPR; data not shown; SAP on tyrosine phosphorylated CD229 distal ITSM peptide, 37°C, n = 3
[2] = target: T1, SHIP SH2 domain from SHIP-1, recombinant human (human, UniProt Q92835 5-101); experiment: SPR; BIAcore 3000; biotinylated phosphopeptides immobilised on a streptavidin-coated CM5 chip (~30 RU), purified recombinant protein passed over; 37°; 10 mM HEPES pH 7·4, 150 mM KCl, 10 mM EDTA, 0·005% Tween 20; equilibrium data, one-site binding curve; conditions: both partners purified
T1 construct: SH2 domain of the inositol phosphatase SHIP-1, human; source: recombinant, produced in-house and purified on the day of the experiment
T1 sequence (looked up): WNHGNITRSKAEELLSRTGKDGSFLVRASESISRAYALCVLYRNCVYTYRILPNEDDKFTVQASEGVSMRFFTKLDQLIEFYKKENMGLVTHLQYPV

[3] = target: T2, signalling lymphocyte activation molecule-associated protein (SAP), full length, recombinant human (human, UniProt O60880 1-128); experiment: as above; conditions: both partners purified
T2 construct: SAP (SH2D1A), human, full length recombinant protein; called 'soluble monomeric recombinant human SAP' in the results; also called SH2D1A; source: recombinant, produced in-house and purified on the day of the experiment
T2 sequence (looked up): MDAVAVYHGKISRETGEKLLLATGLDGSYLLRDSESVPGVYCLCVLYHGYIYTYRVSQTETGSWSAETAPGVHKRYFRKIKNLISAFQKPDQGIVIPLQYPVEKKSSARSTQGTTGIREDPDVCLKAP

B2: CD244-ITSM2 phosphopeptide (peptide)
peptide: Biotin-GGSTI[pY]SMIQS
notes: CD244 (2B4, SLAMF4), human, ITSM2; source: synthetic peptide; bought: Peptide Protein Research Ltd
- Kd [2]: 2.4 µM

B3: CD244-ITSM1 phosphopeptide (peptide)
peptide: Biotin-EFLTI[pY]EDVKD
notes: CD244 (2B4, SLAMF4), human, ITSM1; source: synthetic peptide; bought: Peptide Protein Research Ltd
- Kd [2]: 25 µM

B4: CD229V phosphopeptide (CD229 ITSM1, Val602 variant) (peptide)
peptide: Biotin-GENTV[pY]AQVFN
notes: CD229 (Ly9, SLAMF3), human, first (membrane proximal) ITSM, natural variant Val602 of SNP rs509749; also called CD229 Val602 ITSM; TVpYAQV; source: synthetic peptide; bought: Peptide Protein Research Ltd
- Kd [3]: 3.4 µM and 2.8 µM and 4.4 µM
- Kd [2]: 100 µM and 82 to 110 µM

B6: CD229M phosphopeptide (CD229 ITSM1, Met602 variant) (peptide)
peptide: Biotin-GENTM[pY]AQVFN
notes: CD229 (Ly9, SLAMF3), human, first (membrane proximal) ITSM, natural variant Met602 of SNP rs509749; also called CD229 Met602 ITSM; TMpYAQV; source: synthetic peptide; bought: Peptide Protein Research Ltd
- Kd [3]: 1.7 µM and 1.5 to 2 µM
- Kd [2]: 23 to 92 µM and > 50 µM

Further lines, results first:

- Kd [1]: 0.1 µM
B1: signalling lymphocyte activation molecule-associated protein (SAP), full length, recombinant human (natural protein)
chain: T2 sequence (looked up)

- Kd [2]: 0.36 µM
B5: FcγRIIb-ITIM phosphopeptide (peptide)
peptide: Biotin-ADKVGAENTIT[pY]SLLMHPDA
notes: FcγRIIb, human, ITIM; source: synthetic peptide; bought: Peptide Protein Research Ltd
